The source of these data is the DeepSol protein solubility set.

The nature of the data set: soluble on expression in E. coli; label from the status in PepcDB or PDB records.
As for “MGSDKIHHHHHHMHININMDWLSAKGLPILGLDISTTAIKLVELSDAGKGMLRVERYIIEPLPKDAVSDGNIANLDQVADTLRHAWKTLGSRVKNVALALPSSAVITKKILAPASLTGIELENQVEAEANQVIPFALDEVNLDFQVLGPSPGSPDDMQILLAAARKEKVEDRVAAVEAAGLKALIMDVESYATQAAYEQIAHLLPNGGAGQTVAIIDVGAQNMHINILNDNESVYLREHGFGGNQLNNEIARRYGMSGEEAENAKRKGSLPESYELEVLQPYSETLAMEIGRALQLFTTSTQYRKIDQILLAGGGAMIPGLDEVVAQRTGTPTLVVNPFANMAVASKVRPQALTADAPSLFVACGLAMRRFDSQ”, the “soluble on expression in E. coli” value is recorded as “not soluble”.
As to “MQDLIKQYNTTLRQLREAQKDAKEEDVKVLTDMISDITYSLEWMKKARRPGNRRGVERLAAYQRERACDPLLMQRYFRSMDDNLYEWDNHQQEHSIGEWDKVRLEDALSLLTEREKEVYLMSRGYCLTYREIARYLDITCSTVQSMIERAEKKIARQVNESLFCNCG”, the “soluble on expression in E. coli” value is “not soluble”.
The value for “EHRSIMNTLNFLESHYPVTAEDAYLLKTNYVFDVSISELFGWFIGDGRLVILPPNGEKSPQLCMDYIETYKVTHINFVPAMLHVFLEMAKDNKRFTEDGPLKYMMVAGEAFPKVLVKKAVSLFTNCRVENIYGPTEASIYAAYFGCGKGDIASHHTPIGKP” was “not soluble”; that for “MGSDKIHHHHHHMRGCFSVTGVEDVCERLGVPCVPLDDPVEVSGEVFQKIKISRKVLEADKVVNLPKLKTHSQMVMTLGVKNTFGCVVGLEKSSWHMRAKNYDDFANLLIDIHRIVSPVLTILDGVEGMEGNGPTNGKKKHFGLVAVSKNAFALDDAVCKALGIDHVVYTVQHARKRRVVPDYEIVGTFHASIQLPSTVSTLDRLSRTFSRFFVKYPKIDTRKCVKCRLCEERCPASAIDISSQRIDYQKCIRCYVCHEVCPQDAIKLVRRLV” was “not soluble”; that for “MWGWKAVGIKIDPSVSLEQAREIIKEAGFQEYVVNPEYIIFKQTGTQLTIKGEELPIEVVIGSAESGIFLQARYDTFVLFDSGDLAKLADELVFKLSV” was “not soluble”.
The value for “MSLNGITKYVEKLTFFNIQSGKQVEFNRDEKVILSNVPFIQQLPELDRGCEVTSLAMMLQYAGITVDKMKLANEIKKVDFMNDGVRGNPNEGFVGNIYTFSESGYGVYHGPLFQLAKKYLPNKAVDLTGKSIEELYKSVKAGQPVVIITNATFAPLDEDEFTTWETNNGDVSITYNEHCVVLIGYDQESVYIRDPLKDSLDVKVPREKFEQAWVQMGSQAISYVKRSKEGHHHHHH” was “soluble”; that for “MGSDKIHHHHHHTACETDNDSNPILNEPDTFTLNTPAYAANNVYDLKNAQTVELTCSQPDYGFPAATTYTVQASFEQDFIEATDESKANYTVLESTSPTAKINVDASELNNALLDLWTAVNGEQAELPTEPVAVYIRLKANITSSGKGVCFSNVIELPNVLISKSTSSLTPPKTMFIVGSMLDTDWKVWKPMAGVYGMDGQFYSMIYFDANSEFKFGTKENEYIGINDNRVTVTDKAGAGVSGSDNFVVENAGWYLFYVKAAVKGDDYQFTITFYPAEVYLFGNTTGGSWAFNDEWKFTVPATKDGNFVSPAMTASGEVRMCFKTDLDWWRTEFTLHDGEIFYRDFNLIDSWTEKGDGYSIQGSAGNVIHLNFTAGTGEKK” was “not soluble”; that for “MKLLHAIQTHAETYPQTDAFRSQGQSLTYQELWEQSDRAAAAIQKRISGEKKSPILVYGHMEPHMIVSFLGSVKAGHPYIPVDLSIPSERIAKIIESSGAELLIHAAGLSIDAVGQQIQTVSAEELLENEGGSVSQDQWVKEHETFYIIYTSGSTGNPKGVQISAANLQSFTDWICADFPVSGGKIFLNQAPFSFDLSVMDLYPCLQSGGTLHCVTKDAVNKPKVLFEELKKSGLNVWTSTPSFVQMCLMDPGFSQDLLPHADTFMFCGEVLPVSVAKALLERFPKAKIFNTYGPTEATVAVTSVEITNDVISRSESLPVGFAKPDMNIFIMDEEGQPLPEGEKGEIVIAGPSVSRGYLGEPELTEKAFFSHEGQWAYRTGDAGFIQDGQIFCQGRLDFQIKLHGYRMELEEIEFHVRQSQYVRSAVVIPYQPNGTVEYLIAAIVPEEHEFEKEFQLTSAIKKELAASLPAYMIPRKFIYQDHIQMTANGKIDRKRIGEEVLVRSHHHHHH” was “soluble”.
For “MGSDKIHHHHHHMLSVAIPKAKPLLKQEKVATTAQKNQKEVIHYTAIGDSLTEGIGDLTNSGGFVPIVADDLKEHYNLNGVQTDNFGKNGDRSDQILKRIKEKPEIQKGLASADVITLTVGGNDLMKVISSNIFDLKVSSFNRPQKAYQRRVRRLLEEIREYNEKAPIYVLGIYNPFYLNFSEITEMQEIVDNWNQATEEMVQEQKRAYFIPINDLLYKGRGDEVGVTGGDSETTGSSASKEDLNNLLYEEDRFHPNNLGYQIMAGAVRDEMVKTEKEWITKSEGSE” the value was “not soluble”.
For the sequence “MKRPDYRTLQALDAVIRERGFERAAQKLCITQSAVSQRIKQLENMFGQPLLVRTVPPRPTEQGQKLLALLRQVELLEEEWLGDEQTGSTPLLLSLAVNADSLATWLLPALAPVLADSPIRLNLQVEDETRTQERLRRGEVVGAVSIQHQALPSCLVDKLGALDYLFVASKPFAERYFPNGVTRSSLLKAPAVAFDHLDDMHQAFLQQNFDLPPGSVPCHIVNSSEAFVQLARQGTTCCMIPHLQIEKELESGELINLTPGLLQRRMLYWHRFAPESRMMRKVTDALLEYGHKVLRQD”, the “soluble on expression in E. coli” value was “not soluble”.
For “MGKKKFIENEDGTTEVQETESEAPKDKKEKKEYRLRTLGANIKTSKKSFKEQFFMNYEDGLKLIKKMRGKGKGGQLVQKVMPRHISLPYHMSGKAAMEEACDWIAQNTVGKYRKEYKGIVVAVGSVDLASAPRVISDQYAFHTDVAINQIVFIPKIGDQYEAKVKYVQEGLMVGVVMDMITIHIKQNDKTSEDQVAIDDKILVKYSGIRIKSSLCHLKGEYVKMIEKAEIKEEEEVEDEADEETDVKEKVKEEEDEDEDMEE”, the “soluble on expression in E. coli” value was “not soluble”.
Turning to “MSLNVRIYCRASTEGQHADRALTSLREFSKSKGWQIAGEYIENASGAKLERVELMRLLSEAQSGDLLLVEAIDRLSRLEHSAWVELKDTLNRKGLIIVSMDLPTSWQMVEMAGNDLTSGILRAVNAMLIDILATMARQDYETRRKRQQQGIERAKSEGIYIGRAKNQEAREIVREMLEQGVKPELIMKAAGISRATYYRIKNELLIVKSEGHHHHHH”, the “soluble on expression in E. coli” value is “soluble”.
As to “TDKEEFALYCEAKNDKVRKRLGIKGGFYWTTAKKLSVAISRCITAMDDNDYDEDDFKKPVRVNLPVVDDLPPEGVFDTEFCNRYEKGGKDGITMTFIGPSPSVQDKPASTDNTNINGEAMTEIEESMLLPVSGQELPIRWLAQHGSEKPVTHVSRDELQALHIARAEELPAVTALAISHKTSLLDSL”, the “soluble on expression in E. coli” value is “not soluble”.
“MLNNDVLRSLRYLLDLPDAHLAELAARFGEQVEADLLEAYLKKEDEDGFQACPDRYLARCLDGLIIQRRGRDESRPLPPLELPLSNNMILKKLRVAFELKEEDLHAILDSVDFPVSKPELSALFRKPGHSNYRTCGDQLLRNFLKGLTLRVRG”: the “soluble on expression in E. coli” value is “not soluble”.
The value for “MEPEFLYDLLQLPKGVEPPAEEELSKGGKKKYLPPTSRKDPKFEELQKVLMEWINATLLPEHIVVRSLEEDMFDGLILHHLFQRLAALKLEAEDIALTATSQKHKLTVVLEAVNRSLQLEEWQAKWSVESIFNKDLLSTLHLLVALAKRFQPDLSLPTNVQVEVITIESTKSGLKSEKLVEQLTEYSTDKDEPPKDVFDELFKLAPEKVNAVKEAIVNFVNQKLDRLGLSVQNLDTQFADGVILLLLIGQLEGFFLHLKEFYLTPNSPAEMLHNVTLALELLKDEGLLSCPVSPEDIVNKDAKSTLRVLYGLFCKHTQKAHRDRTPHGAPN” was “soluble”; that for “MGSDKIHHHHHHMPVSQPVSSQPPTANCYDLAVIGGGINGVGIAADAAGRGLKVFLCEKDDLAQHTSSASSKLIHGGLRYLEHYEFRLVREALAEREVLLAKAPHIVKPMRFVLPHRPHLRPAWMIRAGLFLYDHLGKRKRLGASRSLRFGPGYPLKPAITRGFEYADCAVDDARLVVLNAMAARELGAHIRTRTRCLRAERVEGLWQVELQHADGSLQTIHARALVNAAGPWVASFIKDDLKLDAPYGIRLIQGSHIIVPRLYEGEHAYILQNEDQRIVFCIPYLDRFTLIGTTDREYSGDPAAVAITEQETHYLLKVVNEHFNHQLSQADILHTYSGVRPLCNDESDNPSAVTRDYTLALSAEVGQAPLLSVFGGKLTTYRKLAESAMAELKPFFTQMRAPWTASAPLPGAEGMTTVQALIDAVLARCGWLPVDLAKRWVLTYGSRVWRLLDGVHGPEDLGQAIGAGLFTREVDYLLEEEWAEQTADIIWRRTKLGLSLTAQEQMALEAYLQQARKVRANSRAA” was “not soluble”.
With “MGSDKIHHHHHHMSASLNYKSFSKEQQTMDNLEKQLICPICLEMFTKPVVILPCQHNLCRKCASDIFQASNPYLPTRGGTTMASGGRFRCPSCRHEVVLDRHGVYGLQRNLLVENIIDIYKQESTRPEKKSDQPMCEEHEEERINIYCLNCEVPTCSLCKVFGAHKDCQVAPLTHVFQRQKSELSDGIAILVGSNDRVQGVISQLEDTCKTIEECCRKQKQELCEKFDYLYGILEERKNEMTQVITRTQEEKLEHVRALIKKYSDHLENVSKLVESGIQFMDEPEMAVFLQNAKTLLKKISEASKAFQMEKIEHGYENMNHFTVNLNREEKIIREIDFYR”, the “soluble on expression in E. coli” value is “not soluble”.
In the case of “MSIYTLGIDVGSTASKCIILKDGKEIVAKSLVAVGTGTSGPARSISEVLENAHMKKEDMAFTLATGYGRNSLEGIADKQMSELSCHAMGASFIWPNVHTVIDIGGQDVKVIHVENGTMTNFQMNDKCAAGTGRFLDVMANILEVKVSDLAELGAKSTKRVAISSTCTVFAESEVISQLSKGTDKIDIIAGIHRSVASRVIGLANRVGIVKDVVMTGGVAQNYGVRGALEEGLGVEIKTSPLAQYNGALGAALYAYKKAAKSAWSHPQFEK”, the “soluble on expression in E. coli” value is listed as “soluble”.
Consider “KEATWVTDKPLTLKIHMHFRDKWVWDENWPVAKESFRLTNVKLQSVANKAATNSQEQFNLMMASGDLPDVVGGDNLKDKFIQYGQEGAFVPLNKLIDQYAPHIKAFFKSHPEVERAIKAPDGNIYFIPYVPDGVVARGYFIREDWLKKLNLKPPQNIDELYTVLKAFKEKDPNGNGKADEVPFIDRHPDEVFRLVNFWGARSSGSDNYMDFYIDNGRVKHPWAETAFRDGMKHVAQWYKEGLIDKEIFTRKAKAREQMFGGNLGGFTHDWFASTMTFNEGLAKTVPGFKLIPIAPPTNSKGQRWEEDSRQKVRPDGWAITVKNKNPVETIKFFDFYFSRPGRDISNFGVPGVTYDIKNGKAVFKDSVLKSPQPVNNQLYDMGAQIPIGFWQDYDYERQWTTPEAQAGIDMYVKGKYVMPGFEGVNMTREERAIYDKYWADVRTYMYEMGQAWVMGTKDVDKTWDEYQRQLKLRGLYQVLQMMQQAYDRQYKN”, for which the “soluble on expression in E. coli” value is “soluble”.
In the case of “MSLSARSSHLSQPVVKSVLVYRNGDPFYAGRRVVIHEKKVSSFEVFLKEVTGGVQAPFGAVRNIYTPRTGHRIRKLDQIQSGGNYVAGGQEAFKKLNYLDIGEIKKRPMEVVNTEVKPVIHSRINVSARFRKPLQEPCTIFLIANGDLINPASRLLIPRKTLNQWDHVLQMVTEKITLRSGAVHRLYTLEGKLVESGAELENGQFYVAVGRDKFKKLPYSELLFDKSTMREGHHHHHH”, the “soluble on expression in E. coli” value is on record as “not soluble”.
